These results are taken from patent US20140056903A1 (Regeneron, published 2014).

Substitutions are numbered along the chain they refer to. In names and notes the source's numbering stands.

The labels stand for the following.
T1: monkey GFRα3 expressed with a C-terminal myc-myc-hexahistidine tag (monkey (Mf), UniProt O60609 32-374 (human entry), limits assumed)
T1 construct: also called MfGFRα3-mmh; MfGFRα3-mmH
T1 chain: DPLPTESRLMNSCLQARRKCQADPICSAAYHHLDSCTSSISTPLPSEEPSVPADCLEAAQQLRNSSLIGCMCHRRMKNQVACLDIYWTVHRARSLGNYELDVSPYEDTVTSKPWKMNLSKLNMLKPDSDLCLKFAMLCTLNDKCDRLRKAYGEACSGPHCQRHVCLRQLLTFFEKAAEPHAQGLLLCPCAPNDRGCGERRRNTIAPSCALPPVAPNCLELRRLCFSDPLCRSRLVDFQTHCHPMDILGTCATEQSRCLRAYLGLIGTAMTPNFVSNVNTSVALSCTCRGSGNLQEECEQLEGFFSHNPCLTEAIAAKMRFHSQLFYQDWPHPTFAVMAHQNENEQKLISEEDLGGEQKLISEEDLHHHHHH

B1: H4H2345S (antibody, human IgG4, V domains shown)
VH: EVQLVESGGGLVRPGRSLRLSCAASGFTFDNYAMHWVRQVPGKGLEWVSGITWNSVSLGYADSVKGRFTISRDNAQNSLYLQMNSLRTVDTALYYCAKDRWGGSYYFDFWGQGTLVTVSS
VL: DIVMTQSPSSLSASVGDRVTITCRASQGISNYLAWYQQKPGKVPKLLIYSASTLQSGVPSRFSGSGSGTDFTLTISNLQPEDFATFFCQKYNSAPTFGGGTKVEIK
notes: human IgG4 Fc (H4H)
B2: H4H2341S (antibody, human IgG4, V domains shown)
VH: EVQLVESGAEVKKSGSSVKVSCKASGGTFSRYAISWVRQAPGQGLEWMGGIIPLFGTLNYAQKFQGRVTLTTDESTSTAYMELSSLRSEDTAVYYCAVFYYGSGSYRNWFDPWGQGTLVTVSS
VL: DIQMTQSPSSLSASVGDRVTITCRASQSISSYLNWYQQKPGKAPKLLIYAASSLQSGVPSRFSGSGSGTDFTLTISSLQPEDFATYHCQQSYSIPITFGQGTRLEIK
notes: human IgG4 Fc (H4H)
B3: H4H2344S (antibody, human IgG4, V domains shown)
VH: EVQLVESGGGVVQPGRSLRLSCAASGFSFSDYVMHWVRQAPGKGLEWVASIWFDGSNEFYADSVKGRFTISRDNSKNTLFLQMNSLRAEDTAVYYCAKKGVLVATSAFDIWGQGTMVTVSS
VL: DIQMTQSPSSLSASVGDRVTITCRASQSINNYLNWYHQKPGKAPKLLIYAASSLQSGVPSRFSGSGSGTDYTLTISSLQPEDFGNYYCQQSYRTSMYTFGQGTKVEIK
notes: human IgG4 Fc (H4H)
B4: H4H2346S (antibody, human IgG4, V domains shown)
VH: B3 VH with E1Q
VL: B3 VL with D1E, Q3V
notes: human IgG4 Fc (H4H)
B5: H4H2354S (antibody, human IgG4, V domains shown)
VH: B3 VH with E1Q
VL: B3 VL with M4L
notes: human IgG4 Fc (H4H); also called H4H2354S-1
B6: H4H2293P (antibody, human IgG4, V domains shown)
VH: B3 VH with E1Q, F59L, D109H
VL: B3 VL with D1A, S28N, K45N, R93S, V105L
notes: human IgG4 Fc (H4H)
B7: H4H2364S (antibody, human IgG4, V domains shown)
VH: EVQLVESGGGLEQPGGSLRLSCAASGFTFSSYVMSWVRQVPGKGLEWVSVISGSGGSTYYADSVKGRFTISRDNSKNTLYLQMNSLRAEDTAVYYCAKPSSYSSSNFHYGMDVWGQGTTVTVSS
VL: DIQMTQSPYSVSASVGDRVTITCRASQGISSWLAWYQQKPGRAPKLLIYAASSLQSGVPSRFSGSGSGTDFTLTISSLQPEDFATYYCQKTNSFPFTFGPGTKVEIK
notes: human IgG4 Fc (H4H)

One experiment has as its target T2, human GFRα3 expressed with a C-terminal myc-myc-hexahistidine tag (human, UniProt O60609 32-374, biotinylated (sites not given) in ELISA format 2 and in the Octet cross-competition; not in SPR).
T2 construct: also called hGFRα3-mmh; hGFRα3-mmH
In words: SPR, Ab captured, 25C. The method, then: Antibodies were tested for binding to human GFRα3 expressed with either a C-terminal myc-myc-hexahistidine tag (hGFRα3-mmh; SEQ ID: 370, a C-terminal hFc tag (hGFRα3-hFc; SEQ ID:371), or a C-terminal mFc tag (hGFRα3-mFc; SEQ ID:372), as well as monkey GFRα3 expressed with a C-terminal myc-myc-hexahistidine tag (MfGFRα3-mmh; SEQ ID:373). Anti-GFRα3 antibodies were captured on either a goat anti-mouse IgG polyclonal antibody (GE Healthcare, #BR-1008-38) or a mouse anti-human IgG monoclonal antibody (GE Healthcare, #BR-1008-39) surface created through direct amine coupling to a Biacore CM5 sensor chip. Kinetic experiments were carried out using HBS-EP (10 mM HEPES, 150 mM NaCl, 3 mM EDTA, 0.05% Surfactant P20, at pH 7.4) or PBS buffer containing 0.05% v/v surfactant P20 as both the running buffer and the sample buffer. Binding to human GFRα3-mmh or monkey GFRα3-mmh was evaluated by injecting several concentrations ranging from 200 to 7.4 nM (3-fold dilutions) across the captured antibody surface. Binding to human GFRα3-mFc or human GFRα3-hFc was evaluated by injecting several concentrations ranging from 100 to 3.7 nM (3-fold dilutions) across the captured antibody surface. Antibody-antigen association was monitored for up to 4 minutes, while dissociation in buffer was monitored for up to 20 minutes. Kinetic association (kₐ) and dissociation (kd) rate constants were determined by processing and fitting the data to a 1:1 binding model using Scrubber 2.0c curve fitting software. Binding dissociation equilibrium constants (KD) and dissociative half-lives (t_{1/2}) were calculated from the kinetic rate constants as: KD (M)=kd/kₐ and t_{1/2} (min)=[ln 2/(60*kd)].
One may read the Kd as a measure of binding affinity in units of concentration. As usually defined, the koff is the rate constant with which the complex falls apart. In general, kon refers to the rate constant with which the complex forms. Turning to B1, binding was put at a Kd of 29.7 nM, the koff is 0.00323 s⁻¹, the kon stood at 109000 M⁻¹ s⁻¹ and the t1/2 worked out at 4 min.
Molecule B2 gave a Kd of 1.68 nM, a koff of 0.000267 s⁻¹, an on-rate constant (kon) of 159000 M⁻¹ s⁻¹ and a t1/2 of 43 min.
As for B3, the Kd was 1.31 nM, the koff is 0.00024 s⁻¹, the on-rate (kon) is 183000 M⁻¹ s⁻¹ and the t1/2 was 48 min.
Molecule B4 gave a Kd of 0.43 nM, a koff of 7.99e-05 s⁻¹, a kon of 186000 M⁻¹ s⁻¹ and a t1/2 of 145 min.
The corresponding values for B5 are 0.548 nM, 0.00011 s⁻¹, 200000 M⁻¹ s⁻¹ and 105 min.
As for B6, the Kd was determined as 0.219 nM, the koff was 0.000127 s⁻¹, the kon came out at 581000 M⁻¹ s⁻¹ and the t1/2 was found to be 91 min.
Turning to B7, the dissociation constant Kd came out at 0.104 nM, the koff is 3.67e-05 s⁻¹, the kon came out at 353000 M⁻¹ s⁻¹ and the t1/2 stood at 315 min.

Another experiment deals with T2, human GFRα3 expressed with a C-terminal …. Put plainly: SPR, Ab captured, 37C. The method in brief:
(§1)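 KD values come from 1:1 kinetic fits of surface plasmon resonance data, with KD (M) = kd/kₐ and t½ (min) = ln 2/(60*kd). The antibody was held on an amine-coupled anti-IgG capture surface and antigen flowed over in HBS-EP, pH 7.4, or PBS with 0.05% P20.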
(In general: In SPR one partner is held on a chip, and binding of the other changes the refractive index at the surface.)
The molecule B1 yielded a Kd of 47.3 nM, an off-rate constant (koff) of 0.0087 s⁻¹, an on-rate constant (kon) of 184000 M⁻¹ s⁻¹ and a t1/2 of 1 min.
B2 came in with a Kd of 2.98 nM, a dissociation rate constant (koff) of 0.000737 s⁻¹, an association rate constant (kon) of 248000 M⁻¹ s⁻¹ and a t1/2 of 16 min.
The corresponding values for B3 are 2.58 nM, 0.000724 s⁻¹, 280000 M⁻¹ s⁻¹ and 16 min.
The corresponding values for B4 are 1.41 nM, 0.000589 s⁻¹, 419000 M⁻¹ s⁻¹ and 20 min.
On the same counts, the results for B5 are 2.31 nM, 0.000649 s⁻¹, 281000 M⁻¹ s⁻¹ and 18 min.
For the molecule B6, binding was put at a Kd of 0.313 nM, the off-rate constant (koff) is 0.000244 s⁻¹, the on-rate (kon) was determined as 781000 M⁻¹ s⁻¹ and the t1/2 worked out at 47 min.
Take B7: the Kd amounted to 0.809 nM, the dissociation rate constant (koff) amounted to 0.000273 s⁻¹, the kon amounted to 338000 M⁻¹ s⁻¹ and the t1/2 is 42 min.

Another experiment concerns the target T1, monkey GFRα3 expressed with a …. Put plainly: SPR, Ab captured, 37C. The method in brief:
as §1
B1: the dissociation constant (Kd) was 26.3 nM, the koff amounted to 0.00353 s⁻¹, the kon was found to be 134000 M⁻¹ s⁻¹ and the t1/2 amounted to 3 min.
The corresponding values for B2 are 3.53 nM, 0.000508 s⁻¹, 144000 M⁻¹ s⁻¹ and 23 min.
The corresponding values for B3 are 3.57 nM, 0.000575 s⁻¹, 161000 M⁻¹ s⁻¹ and 20 min.
B4: the dissociation constant (Kd) stood at 3.34 nM, the koff stood at 0.000511 s⁻¹, the on-rate constant (kon) came to 153000 M⁻¹ s⁻¹ and the t1/2 amounted to 23 min.
The corresponding values for B5 are 2.78 nM, 0.000435 s⁻¹, 157000 M⁻¹ s⁻¹ and 27 min.
As for B6, binding was put at a Kd of 0.358 nM, the off-rate (koff) worked out at 0.000158 s⁻¹, the on-rate (kon) was 441000 M⁻¹ s⁻¹ and the t1/2 was 73 min.
On the same counts, the results for B7 are 5.14 nM, 0.000861 s⁻¹, 168000 M⁻¹ s⁻¹ and 13 min.
